According to PMC4240654, “A Single Chain Variant of Factor VIII Fc Fusion Protein Retains Normal In Vivo Efficacy but Exhibits Altered In Vitro Activity” (PLoS ONE, 2014):

Legend:
[1] = biological target: T1, human plasma-derived von Willebrand factor (VWF) (human, UniProt P04275 764-2813); assay: SPR; Biacore T100, 37°C; human plasma-derived VWF immobilised on flow cells, FVIII variants infused to normalized capture levels, then human α-thrombin at different concentrations applied and rates of release determined; details: both partners purified
T1 construct: von Willebrand factor, human, derived from plasma; Plasma VWF is a multimer; also called human VWF; source: human plasma-derived

[2] = biological target: T1, human plasma-derived von Willebrand …; assay: SPR; Biacore T100, 25°C; human plasma-derived VWF immobilised on flow cells, FVIII variants infused to normalized capture levels, then human α-thrombin at different concentrations applied and rates of release determined; details: both partners purified

B1: BDD rFVIII (recombinant B-domain-deleted factor VIII, ReFacto / Xyntha) (natural protein)
chain 1: ATRRYYLGAVELSWDYMQSDLGELPVDARFPPRVPKSFPFNTSVVYKKTLFVEFTDHLFNIAKPRPPWMGLLGPTIQAEVYDTVVITLKNMASHPVSLHAVGVSYWKASEGAEYDDQTSQREKEDDKVFPGGSHTYVWQVLKENGPMASDPLCLTYSYLSHVDLVKDLNSGLIGALLVCREGSLAKEKTQTLHKFILLFAVFDEGKSWHSETKNSLMQDRDAASARAWPKMHTVNGYVNRSLPGLIGCHRKSVYWHVIGMGTTPEVHSIFLEGHTFLVRNHRQASLEISPITFLTAQTLLMDLGQFLLFCHISSHQHDGMEAYVKVDSCPEEPQLRMKNNEEAEDYDDDLTDSEMDVVRFDDDNSPSFIQIRSVAKKHPKTWVHYIAAEEEDWDYAPLVLAPDDRSYKSQYLNNGPQRIGRKYKKVRFMAYTDETFKTREAIQHESGILGPLLYGEVGDTLLIIFKNQASRPYNIYPHGITDVRPLYSRRLPKGVKHLKDFPILPGEIFKYKWTVTVEDGPTKSDPRCLTRYYSSFVNMERDLASGLIGPLLICYKESVDQRGNQIMSDKRNVILFSVFDENRSWYLTENIQRFLPNPAGVQLEDPEFQASNIMHSINGYVFDSLQLSVCLHEVAYWYILSIGAQTDFLSVFFSGYTFKHKMVYEDTLTLFPFSGETVFMSMENPGLWILGCHNSDFRNRGMTALLKVSSCDKNTGDYYEDSYEDISAYLLSKNNAIEPRSFSQNPPVLKRHQR
chain 2: EITRTTLQSDQEEIDYDDTISVEMKKEDFDIYDEDENQSPRSFQKKTRHYFIAAVERLWDYGMSSSPHVLRNRAQSGSVPQFKKVVFQEFTDGSFTQPLYRGELNEHLGLLGPYIRAEVEDNIMVTFRNQASRPYSFYSSLISYEEDQRQGAEPRKNFVKPNETKTYFWKVQHHMAPTKDEFDCKAWAYFSDVDLEKDVHSGLIGPLLVCHTNTLNPAHGRQVTVQEFALFFTIFDETKSWYFTENMERNCRAPCNIQMEDPTFKENYRFHAINGYIMDTLPGLVMAQDQRIRWYLLSMGSNENIHSIHFSGHVFTVRKKEEYKMALYNLYPGVFETVEMLPSKAGIWRVECLIGEHLHAGMSTLFLVYSNKCQTPLGMASGHIRDFQITASGQYGQWAPKLARLHYSGSINAWSTKEPFSWIKVDLLAPMIIHGIKTQGARQKFSSLYISQFIIMYSLDGKKWQTYRGNSTGTLMVFFGNVDSSGIKHNIFNPPIIARYIRLHPTHYSIRSTLRMELMGCDLNSCSMPLGMESKAISDAQITASSYFTNMFATWSPSKARLHLQGRSNAWRPQVNNPKEWLQVDFQKTMKVTGVTTQGVKSLLTSMYVKEFLISSSQDGHQWTLFFQNGKVKVFQGNQDSFTPVVNSLDPPLLTRYLRIHPQSWVHQIALRMEVLGCEAQDLY
modifications: ReFacto/Xyntha (moroctocog alfa): S743-Q1638 fusion by convention, the same junction as printed for rFVIIIFc; mainly two-chain after cleavage at R1648, with a minor single-chain fraction …
- thrombin EC50 for release from VWF [1]: 4 ± 0.2 U/mL
- thrombin EC50 for release from VWF [2]: 3.3 ± 0.3 U/mL
